B1: N^-1-[(4S)-4-carboxy-4-(19-carboxynonadecanoylamino)butanoyl]-Gly[Arg1,His14,Arg17,Pro21,Pro27,Pro34]-h-amylin (peptide)
peptide: {C20 diacid-γGlu}-GRCNTATCATQRLAHFLRHSSPNFGAIPSSTNVGPNTY-NH2
modifications: disulfide 3-8
SMILES: CC[C@H](C)[C@H](NC(=O)[C@H](C)NC(=O)CNC(=O)[C@H](Cc1ccccc1)NC(=O)[C@H](CC(N)=O)NC(=O)[C@@H]1CCCN1C(=O)[C@H](CO)NC(=O)[C@H](CO)NC(=O)[C@H](Cc1c[nH]cn1)NC(=O)[C@H](CCCNC(=N)N)NC(=O)[C@H](CC(C)C)NC(=O)[C@H](Cc1ccccc1)NC(=O)[C@H](Cc1c[nH]cn1)NC(=O)[C@H](C)NC(=O)[C@H](CC(C)C)NC(=O)[C@H](CCCNC(=N)N)NC(=O)[C@H](CCC(N)=O)NC(=O)[C@@H](NC(=O)[C@H](C)NC(=O)[C@@H]1CSSC[C@H](NC(=O)[C@H](CCCNC(=N)N)NC(=O)CNC(=O)CC[C@H](NC(=O)CCCCCCCCCCCCCCCCCCC(=O)O)C(=O)O)C(=O)N[C@@H](CC(N)=O)C(=O)N[C@@H]([C@@H](C)O)C(=O)N[C@@H](C)C(=O)N[C@@H]([C@@H](C)O)C(=O)N1)[C@@H](C)O)C(=O)N1CCC[C@H]1C(=O)N[C@@H](CO)C(=O)N[C@@H](CO)C(=O)N[C@H](C(=O)N[C@@H](CC(N)=O)C(=O)N[C@H](C(=O)NCC(=O)N1CCC[C@H]1C(=O)N[C@@H](CC(N)=O)C(=O)N[C@H](C(=O)N[C@@H](Cc1ccc(O)cc1)C(N)=O)[C@@H](C)O)C(C)C)[C@@H](C)O
notes: not restated for each compound
B2: N^-1-[(4S)-4-carboxy-4-(19-carboxynonadecanoylamino)butanoyl]-Gly[Arg1,Ala14,Arg17,Pro21,Pro27,Pro34]-h-amylin (peptide)
peptide: {C20 diacid-γGlu}-GRCNTATCATQRLAAFLRHSSPNFGAIPSSTNVGPNTY-NH2
modifications: disulfide 3-8
notes: as for B1
B3: N^ε1-[(4S)-4-carboxy-4-[[(4S)-4-carboxy-4-(19-carboxynonadecanoylamino)butanoyl]amino]butanoyl]-[Glu14,Arg17,Pro21,Pro27,Pro34,Arg35]-h-amylin (peptide)
peptide: K([γGlu-γGlu-C20 diacid])CNTATCATQRLAEFLRHSSPNFGAIPSSTNVGPRTY-NH2
modifications: disulfide 2-7; N-terminus assumed
SMILES: CC[C@H](C)[C@H](NC(=O)[C@H](C)NC(=O)CNC(=O)[C@H](Cc1ccccc1)NC(=O)[C@H](CC(N)=O)NC(=O)[C@@H]1CCCN1C(=O)[C@H](CO)NC(=O)[C@H](CO)NC(=O)[C@H](Cc1c[nH]cn1)NC(=O)[C@H](CCCNC(=N)N)NC(=O)[C@H](CC(C)C)NC(=O)[C@H](Cc1ccccc1)NC(=O)[C@H](CCC(=O)O)NC(=O)[C@H](C)NC(=O)[C@H](CC(C)C)NC(=O)[C@H](CCCNC(=N)N)NC(=O)[C@H](CCC(N)=O)NC(=O)[C@@H](NC(=O)[C@H](C)NC(=O)[C@@H]1CSSC[C@H](NC(=O)[C@@H](N)CCCCNC(=O)CC[C@H](NC(=O)CC[C@H](NC(=O)CCCCCCCCCCCCCCCCCCC(=O)O)C(=O)O)C(=O)O)C(=O)N[C@@H](CC(N)=O)C(=O)N[C@@H]([C@@H](C)O)C(=O)N[C@@H](C)C(=O)N[C@@H]([C@@H](C)O)C(=O)N1)[C@@H](C)O)C(=O)N1CCC[C@H]1C(=O)N[C@@H](CO)C(=O)N[C@@H](CO)C(=O)N[C@H](C(=O)N[C@@H](CC(N)=O)C(=O)N[C@H](C(=O)NCC(=O)N1CCC[C@H]1C(=O)N[C@@H](CCCNC(=N)N)C(=O)N[C@H](C(=O)N[C@@H](Cc1ccc(O)cc1)C(N)=O)[C@@H](C)O)C(C)C)[C@@H](C)O
notes: not restated for each compound; also called compound 110
B4: N^ε1-[(4S)-4-carboxy-4-(13-carboxytridecanoylamino)butanoyl]-[Arg17,Pro21,Pro27,His34]-h-amylin (peptide)
peptide: K([γGlu-C14 diacid])CNTATCATQRLANFLRHSSPNFGAIPSSTNVGHNTY-NH2
modifications: disulfide 2-7; N-terminus assumed
SMILES: CC[C@H](C)[C@H](NC(=O)[C@H](C)NC(=O)CNC(=O)[C@H](Cc1ccccc1)NC(=O)[C@H](CC(N)=O)NC(=O)[C@@H]1CCCN1C(=O)[C@H](CO)NC(=O)[C@H](CO)NC(=O)[C@H](Cc1c[nH]cn1)NC(=O)[C@H](CCCNC(=N)N)NC(=O)[C@H](CC(C)C)NC(=O)[C@H](Cc1ccccc1)NC(=O)[C@H](CC(N)=O)NC(=O)[C@H](C)NC(=O)[C@H](CC(C)C)NC(=O)[C@H](CCCNC(=N)N)NC(=O)[C@H](CCC(N)=O)NC(=O)[C@@H](NC(=O)[C@H](C)NC(=O)[C@@H]1CSSC[C@H](NC(=O)[C@@H](N)CCCCNC(=O)CC[C@H](NC(=O)CCCCCCCCCCCCC(=O)O)C(=O)O)C(=O)N[C@@H](CC(N)=O)C(=O)N[C@@H]([C@@H](C)O)C(=O)N[C@@H](C)C(=O)N[C@@H]([C@@H](C)O)C(=O)N1)[C@@H](C)O)C(=O)N1CCC[C@H]1C(=O)N[C@@H](CO)C(=O)N[C@@H](CO)C(=O)N[C@H](C(=O)N[C@@H](CC(N)=O)C(=O)N[C@H](C(=O)NCC(=O)N[C@@H](Cc1c[nH]cn1)C(=O)N[C@@H](CC(N)=O)C(=O)N[C@H](C(=O)N[C@@H](Cc1ccc(O)cc1)C(N)=O)[C@@H](C)O)C(C)C)[C@@H](C)O
notes: as for B1
B5: N^ε1-[(4S)-4-carboxy-4-(17-carboxyheptadecanoylamino)butanoyl]-[Arg17,Pro21,Pro27,His34]-h-amylin (peptide)
peptide: K([γGlu-C18 diacid])CNTATCATQRLANFLRHSSPNFGAIPSSTNVGHNTY-NH2
modifications: disulfide 2-7; N-terminus assumed
SMILES: CC[C@H](C)[C@H](NC(=O)[C@H](C)NC(=O)CNC(=O)[C@H](Cc1ccccc1)NC(=O)[C@H](CC(N)=O)NC(=O)[C@@H]1CCCN1C(=O)[C@H](CO)NC(=O)[C@H](CO)NC(=O)[C@H](Cc1c[nH]cn1)NC(=O)[C@H](CCCNC(=N)N)NC(=O)[C@H](CC(C)C)NC(=O)[C@H](Cc1ccccc1)NC(=O)[C@H](CC(N)=O)NC(=O)[C@H](C)NC(=O)[C@H](CC(C)C)NC(=O)[C@H](CCCNC(=N)N)NC(=O)[C@H](CCC(N)=O)NC(=O)[C@@H](NC(=O)[C@H](C)NC(=O)[C@@H]1CSSC[C@H](NC(=O)[C@@H](N)CCCCNC(=O)CC[C@H](NC(=O)CCCCCCCCCCCCCCCCC(=O)O)C(=O)O)C(=O)N[C@@H](CC(N)=O)C(=O)N[C@@H]([C@@H](C)O)C(=O)N[C@@H](C)C(=O)N[C@@H]([C@@H](C)O)C(=O)N1)[C@@H](C)O)C(=O)N1CCC[C@H]1C(=O)N[C@@H](CO)C(=O)N[C@@H](CO)C(=O)N[C@H](C(=O)N[C@@H](CC(N)=O)C(=O)N[C@H](C(=O)NCC(=O)N[C@@H](Cc1c[nH]cn1)C(=O)N[C@@H](CC(N)=O)C(=O)N[C@H](C(=O)N[C@@H](Cc1ccc(O)cc1)C(N)=O)[C@@H](C)O)C(C)C)[C@@H](C)O
notes: as for B1

Numbered stars: 1 amine (or outer) side, 2 acyl side, 3 side chain; on linkers, the order of the positions; unused ones are H or OH. Bridge positions count the residues as written; N and C are the ends. Side chains are listed from the residue outwards. Ends that are not written are not given here. * marks the point of attachment. C20 diacid = O=C(O)CCCCCCCCCCCCCCCCCCC(=O)*; C18 diacid = O=C(O)CCCCCCCCCCCCCCCCC(=O)*; γGlu = O=C(O)[C@H](CCC(=O)[*:2])N[*:1]; C14 diacid = O=C(O)CCCCCCCCCCCCC(=O)*

From patent US20140087995A1 (published 2014) come the findings set out here.

One assay addresses T1, rat calcitonin receptor (rat, UniProt P32214 25-516).
T1 construct: whole, on cells; Used as membranes prepared from the transfected cells (Assay VIII); also called rCTR; rat calcitonin (a) receptor
T1 sequence (looked up): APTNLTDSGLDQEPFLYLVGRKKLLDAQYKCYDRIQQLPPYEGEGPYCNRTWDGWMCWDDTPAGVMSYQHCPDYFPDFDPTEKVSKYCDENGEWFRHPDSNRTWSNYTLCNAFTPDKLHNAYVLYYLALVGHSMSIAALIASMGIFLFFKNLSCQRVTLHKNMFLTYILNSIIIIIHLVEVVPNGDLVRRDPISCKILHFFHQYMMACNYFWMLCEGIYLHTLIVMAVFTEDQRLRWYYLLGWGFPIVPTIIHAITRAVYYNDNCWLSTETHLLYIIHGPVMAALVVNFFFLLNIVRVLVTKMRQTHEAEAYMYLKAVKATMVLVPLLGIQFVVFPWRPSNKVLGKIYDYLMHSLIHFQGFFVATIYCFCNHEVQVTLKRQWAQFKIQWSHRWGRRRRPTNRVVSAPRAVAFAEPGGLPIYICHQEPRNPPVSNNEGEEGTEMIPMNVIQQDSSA
In words: ratio of IC50 on rat calcitonin receptor (Assay VIII) to IC50 on rat amylin receptor (Assay VI).
Consider B1, for which the “Ratio rCT/rAmylin binding” value was 97.7.

Consider B2, for which the “Ratio rCT/rAmylin binding” value was found to be 129.

In the case of B3, the “Ratio rCT/rAmylin binding” value was 113.

For B4, the “Ratio rCT/rAmylin binding” value stood at 280.

On to B5, for which the “Ratio rCT/rAmylin binding” value stood at 40.3.

Another assay has as its target T2, human calcitonin receptor (human, UniProt P30988 25-474).
T2 construct: whole, on cells; Used as membranes prepared from the transfected cells (Assay VII); also called hCTR; hCT
T2 sequence (looked up): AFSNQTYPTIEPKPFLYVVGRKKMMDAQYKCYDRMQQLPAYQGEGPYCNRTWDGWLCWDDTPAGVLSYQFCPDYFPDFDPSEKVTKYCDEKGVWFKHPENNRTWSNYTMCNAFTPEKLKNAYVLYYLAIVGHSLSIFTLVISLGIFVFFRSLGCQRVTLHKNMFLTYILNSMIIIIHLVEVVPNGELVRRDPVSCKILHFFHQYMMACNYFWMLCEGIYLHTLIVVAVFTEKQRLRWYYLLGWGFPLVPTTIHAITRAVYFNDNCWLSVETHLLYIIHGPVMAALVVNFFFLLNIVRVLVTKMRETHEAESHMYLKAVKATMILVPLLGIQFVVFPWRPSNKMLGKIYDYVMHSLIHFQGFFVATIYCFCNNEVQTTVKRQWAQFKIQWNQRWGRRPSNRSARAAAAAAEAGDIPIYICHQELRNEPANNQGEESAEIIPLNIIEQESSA
Description: ratio of IC50 on human calcitonin receptor (Assay VII) to IC50 on human amylin receptor (Assay V). Here is the method:
The resulting pellet was resuspended, homogenized and centrifuged (20.000 rpm, 15 min) in a buffer containing 20 mM Na-HEPES and 0.1 mM EDTA (pH 7.4, buffer 2). The resulting pellet was resuspended in buffer 2 and protein concentration was measured (BCA protein Assay, Pierce). The homogenate was kept cold during the whole procedure. The membranes were kept at −80° C. until use. The assay was performed in a 384 well Optiplate (PerkinElmer) in a total volume of 40 ul. Membranes were mixed with SPA beads. Final concentration of membranes 35 ng/μL final and SPA beads was 0.05 mg/well. Test-compounds were dissolved in DMSO and further diluted in assay buffer (50 mM Hepes, pH 7.4, 1 mM CaCl2, 5 mM MgCl₂, 0.1% OA and 0.02% Tween20). […] The final mixture was incubated with shaking at 400 rpm for 120 min at 25° C. prior to centrifugation (1500 rpm, 10 min). Samples were analyzed on TopCounter™ (Packard). The IC₅₀ was calculated using (one site binding competition analysis) GraphPad Prism5 as a measure of receptor affinity.
Membranes were prepared in the following way; the cells were rinsed with PBS and incubated with Versene for approximately 5 min before harvesting. The cells were flushed with PBS and the cell-suspension was centrifuged for 5 min at 1000 rpm. Cells were homogenized (Ultrathurrax) in a buffer containing 20 mM Na-HEPES and 10 mM EDTA (pH 7.4) and centrifuged at 20.000 rpm for 15 min. The resulting pellet was resuspended, homogenized and centrifuged (20.000 rpm, 15 min) in a buffer containing 20 mM Na-HEPES and 0.1 mM EDTA (pH 7.4, buffer 2). The resulting pellet was resuspended in buffer 2 and protein concentration was measured (BCA protein Assay, Pierce). The homogenate was kept cold during the whole procedure. The membranes were kept at −80° C. until use. Assay was performed in a 384 well Optiplate (PerkinElmer) in a total volume of 40 ul. Membranes were mixed with SPA beads.
In the case of B1, the “Ratio hCT/hAmylin binding” value turned out to be 36.2.

Turning to B2, the “Ratio hCT/hAmylin binding” value is 26.5.

Take B3: the “Ratio hCT/hAmylin binding” value was determined as 53.6.

Turning to B4, the “Ratio hCT/hAmylin binding” value worked out at 23.5.

Regarding B5, the “Ratio hCT/hAmylin binding” value turned out to be 59.4.

The target in a further assay is T1, rat calcitonin receptor. Description: SPA competition binding, displacement of 125I-calcitonin from membranes of BHK tk'ts 13 cells transfected with rat calcitonin receptor (Assay VIII).
On to B1, for which the IC50 (usually the concentration at which inhibition is half-maximal) was 65.9 nM.

For B2, the IC50 stood at 56.3 nM.

For the molecule B3, the IC50 came out at 38.3 nM.

Regarding B4, the IC50 was determined as 707 nM.

For the molecule B5, the IC50 amounted to 47 nM.

For a further assay, the target named is T3, rat amylin receptor (rat calcitonin receptor + rat RAMP 3) (rat, UniProt P32214 25-516; Q9JJ73 23-147).
T3 construct: whole, on cells; Used as membranes prepared from the transfected cells (Assay VI); also called rAmylin-R; rat amylin 3(a) receptor
T3 sequence (looked up) 1: T1 sequence (looked up)
T3 sequence (looked up) 2: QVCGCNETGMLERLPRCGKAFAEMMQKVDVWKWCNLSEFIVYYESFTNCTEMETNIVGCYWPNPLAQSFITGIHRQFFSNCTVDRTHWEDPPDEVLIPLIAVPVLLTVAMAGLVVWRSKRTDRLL
Description: SPA competition binding, displacement of 125I-rat amylin from membranes of BHK tk'ts 13 cells transfected with rat calcitonin receptor + rat RAMP 3 (Assay VI).
In the case of B1, the IC50 turned out to be 0.674 nM.

In the case of B2, the IC50 stood at 0.436 nM.

Consider B3, for which the IC50 was determined as 0.339 nM.

As for B4, the IC50 is 2.52 nM.

Regarding B5, the IC50 is 1.17 nM.
